Experimental data from patent US20220396822A1, “Method for Measuring Pentosidine and Measurement Kit” (Kikkoman Corporation, priority 2019, published 2022).

B1: Trichoderma viride-Derived Lysine Oxidase: purchased enzyme manufactured by Merck KGaA, SEQ ID NO: 14 (protein)
chain: MDNVDFAESVRTRWARRLIREKVAKELNILTERLGEVPGIPPPREGRFLGGGYSHDNLPSDPLYSSIKPALLKEAPRAEEELPPRKVCIVGAGVSGLYIAMILDDLKIPNLTYDIFESSSRTGGRLYTHHFTDAKHDYYDIGAMRYPDIPSMKRTFNLFKRTGMPLIKYYLDGENTPQLYNNHFFAKGVVDPYMVSVANGGTVPDDVVDSVGEKLQQAFGYYKEKLAEDFDKGFDELMLVDDMTTREYLKRGGPKGEAPKYDFFAIQWMETQNTGTNLFDQAFSESVIDSFDFDNPTKPEWYCIEGGTSLLVDAMKETLVHKVQNNKRVEAISIDLDAPDDGNMSVKIGGKDYSGYSTVFNTTALGCLDRMDLRGLNLHPTQADAIRCLHYDNSTKVALKFSYPWWIKDCGITCGGAASTDLPLRTCVYPSYNLGDTGEAVLLASYTWSQDATRIGSLVKDAPPQPPKEDELVELILQNLARLHAEHMTYEKIKEAYTGVYHAYCWANDPNVGGAFALFGPGQFSNLYPYLMRPAAGGKFHIVGEASSVHHAWIIGSLESAYTAVYQFLYKYKMWDYLRLLLERWQYGLQELETGKHGTAHLQFILGSLPKEYQVKIV
modifications: Trichoderma viride
B2: PenOX1: protein having the amino acid sequence of SEQ ID NO: 2, pentosidine oxidase from a filamentous fungus of the genus Sarocladium (protein, listed as Sarocladium sp.)
chain: MKSPSLAVAGLLLGSSSLSHATQLRIETRKSLNSRIANVHIDVDAPVAHQVVFTYGPCDSESQENAHHVIAQSQKLEGRKPHRLIWTMPKDLHPDDCISAWGESGDLLGRSVPQKVAHKEMRRRKRDDSDYSIPMNSSSGIDVYGPWFDGVALLEKSDNHNVDVEAAKAKEIAIVGAGMAGLTTYFILSEAGLSNLTILEASGRLGGRVRTEYLSGGPRDHSYAEMGPMRIPYQARFGDKAYNISDQAIFFRLVEKVNERNKKLGNTKDLINLIPFIQSSPNGLAYYQGNKLENGLPPTQADVAADPALGNESPEIPESAQELAAQLQRALPNAEFLELMATNFWQAHAEFLENQGPAGLPGDQWSEFAFLVNYLNATVFDANAVTGGYDWHSSLDRSSLVGMNLLPNAFHPLVDDITKFNAKVEKVQLDEKTSRLKLHWRANYTDPELESQSFDYAILSPTMPAVQKLRLPGLPFAMRNAVDSMPYASACKVALEYRTRFWEKFDNPIYGSCSTSTDIPGIGSVCYPSSNINGSGPASLLASYEIGRPYGAEWAGIPEEQHVQYVIDAMIDIHGEVARREFTGKCKRKCWALDEFSNGGWASPTVGNHETYLPSFFETHSHMIFVGEHTSYTHAWIASAIESAVRGSVQLLLELGLIDEAKDVVNTWMARWISVVSDLSKAVVSGASA
B3: Crotalus Atrox-Derived Amino Acid Oxidase Type I: purchased enzyme manufactured by Merck KGaA, SEQ ID NO: 13 (protein)
chain: AHDRNPLEECFRETDYEEFLEIAKNGLTATSNPKRVVIVGAGMAGLSAAYVLAGAGHQVTVLEASERVGGRVRTYRKKDWYANLGPMRLPTKHRIVREYIKKFDLKLNEFSQENENAWYFIKNIRKRVREVKNNPGLLEYPVKPSEEGKSAAQLYVESLRKVVEELRSTNCKYILDKYDTYSTKEYLLKEGNLSPGAVDMIGDLLNEDSGYYVSFIESLKHDDIFGYEKRFDEIVGGMDQLPTSMYEAIKEKVQVHFNARVIEIQQNDREATVTYQTSANEMSSVTADYVIVCTTSRAARRIKFEPPLPPKKAHALRSVHYRSGTKIFLTCTKKFWEDDGIHGGKSTTDLPSRFIYYPNHNFTSGVGVIIAYGIGDDANFFQALDFKDCADIVINDLSLIHELPKEDIQTFCHPSMIQRWSLDKYAMGGITTFTPYQFQHFSEALTAPFKRIYFAGEYTAQFHGWIDSTIKSGLTAARDVNRASENPSGIHLSNDNEF
modifications: Crotalus atrox
B4: amino acid eliminating enzyme 2: Crotalus adamanteus-derived L-amino acid oxidase Type I, manufactured by Merck KGaA (SEQ ID NO: 19) (protein, listed as Crotalus adamanteus)
chain: B3 chain
B5: amino acid degrading enzyme 1: mature escapin derived from Aplysia californica (SEQ ID NO: 15) expressed in Aspergillus sojae (protein, listed as Aplysia californica)
chain: DGVCRNRRQCNKEVCGSSYDVAIVGAGPGGANSAYMLRESGLDIAVFEYSDRVGGRLFTYQLPNTPDVNLEIGGMRFIEGAMHRLWKVISELGLTPKVFKEGFGKEGRQRFYLRGQSLTKKQVKSGDVPYDLSPEEKANQGRLVEYYLEKLTGLQLNGGPLKREVALKLTVPDGRFLYDLTFDEALDLVASPEGKEFARDTHVFTSEVTLDASAISIFDDHLGEDYYGSEIYTLEEGMSSVPQGLLQTFLDAAKSNEFFPNNHLKALRRRTNGQYVLYFEPTTSKDGQTTINYLEPLKVVCAQRVILAMPVYALRQLDWSQLRNDRATQAYRAVRPMPASKVFMTFDQPWWLQNERKSWVTKSDALFSQMYDWQKSEASGDYILIASYADGLKAQYLRELKNQGEDIPGSDPGYNQVTVPLKDAILEHLTEAYGVERDSIPEPVTAASQFWTDYPFGCGWITWRAGYHFDDVISTMRRPSLKDEVYVVGSDYSWGLISSWIEGALETSENVINDYFL

Experiments:
Assay type in all cases: biochemical
[1] = Method for measuring enzymatic activity (pentosidine oxidase activity, A555), Examples 9 and 10; settings: 37° C., pH 7.5; 1 mg enzyme powder in 1 mL deionized water
Protocol: The amount of the enzyme that produced 1 μmol of hydrogen peroxide per minute at 37° C. was defined as 1 unit (U). The activity was calculated according to the following expression.
Each buffer was prepared as a 50 mM (final concentration) citric acid-100 mM potassium phosphate buffer (pH 4.0 to 7.5), a 100 mM (final concentration) potassium phosphate buffer (pH 6.5 to 8.0), and a 100 mM (final concentration) glycine buffer (pH 8.0 to 11.0). Enzyme reaction was performed at each pH at a temperature of 37° C. using these buffers. […] It was therefore concluded that the optimum pH of PenOX2 is pH 6.5 to 8.0 and is most preferably pH 7.5.
The activity of PenOX2 was measured at varying temperatures using a 50 mM (final concentration) potassium phosphate buffer (pH 7.5). […] It was thus concluded that the range of the optimum temperature of PenOX2 is from 37° C. to 50° C.
As mentioned above, both PenOX1 and PenOX2 had pentosidine oxidase activity. When the percent match between their amino acid sequences was examined using the BLAST program, the amino acid sequence homology therebetween was 38.2%. […] The amino acid sequence homology to PenOX1 and PenOX2 and pentosidine oxidase activity of each enzyme were as follows.

[2] = Pentosidine quantification test (DA-67/peroxidase, A658); settings: 37° C., pH 7.0
Protocol: The following reagents were prepared, and pentosidine was measured using Bio Majesty JCA-BM1650 (manufactured by JEOL Ltd.).
0.2 μM, 0.4 μM, 0.6 μM, 1.0 μM, 2.0 μM or 4.0 μM pentosidine solution (prepared using the same pentosidine as in Example 2)
120 mM potassium phosphate buffer (pH 7.0)
0.2 mM DA-67 (10-(carboxymethylaminocarbonyl)-3,7-bis(dimethylamino)phenothiazine, sodium salt) (manufactured by FUJIFILM Wako Pure Chemical Corp.)
25 μL of each sample was added to 50 μL of the first reagent, and the mixture was incubated at 37° C. for 5 minutes. Then, 25 μL of the second reagent was added thereto, and pentosidine oxidation reaction mediated by PenOX2 and reaction for the detection of hydrogen peroxide produced through the reaction were allowed to proceed at 37° C. for 5 minutes.
In the reaction for the detection of hydrogen peroxide, DA-67 was oxidized, with concomitant consumption of […], into methylene blue which in turn developed color while absorbance (A658) was elevated. […] Elevation in A658 was able to be confirmed immediately after addition of the second reagent containing PenOX2.
Subsequently, the amount of elevation in A658 (ΔA) caused by the oxidation of pentosidine was calculated according to the following expression.
ΔA=(Absorbance 5 minutes after addition of the second reagent)−(Absorbance immediately before addition of the second reagent×0.75)

[3] = Substrate specificity analysis of amino acid degrading enzymes (reaction rate, A555); settings: room temperature, pH 6.8, amino acids 4 mM, pentosidine 2 mM solutions
Protocol: The amino acid eliminating enzyme 1 liquid obtained in Example 12 was diluted to 0.134 U/ml with a 0.1 M potassium phosphate buffer (pH 6.8).
Pentosidine (which was the same as in Example 12) was dissolved at 2 mM in deionized water. Various amino acids were each dissolved at 4 mM in deionized water.
Peroxidase (manufactured by Toyobo Co., Ltd.) (3.99 U/ml), 4-aminoantipyrine (manufactured by Fluka/Honeywell International Inc.) (1.8 mM), and TOOS (manufactured by Dojindo Laboratories Co., Ltd.) (2 mM) were dissolved in deionized water.
Every measurement was performed at room temperature unless otherwise specified. A 96-well microwell plate (manufactured by Nunc/Thermo Fisher Scientific, Inc.) was used in reaction.
25 μl of each amino acid solution or the pentosidine solution of (2) and 25 μl of the coloring reagent of (3) were added in order to 50 μl of the enzyme liquid of (1). At the start and ten minutes later, absorbance at 555 nm was measured. A slope of elevation in absorbance was regarded as a reaction rate for the target substrate. […]
Every measurement was performed at room temperature unless otherwise specified. […] At the start and ten minutes later, absorbance at 555 nm was measured. A slope of elevation in absorbance was regarded as a reaction rate for the target substrate.

Row | Molecule | specific activity (pentosidine oxidase) as a reference value [1] [U/mg] | substrate having the highest reaction rate [3] | also measured
1 | B1 | 0.063 |  | 
2 | B2 |  |  | pentosidine oxidizing activity [2]: exhibited pentosidine oxidizing activity
3 | B3 | 0.022 |  | 
4 | B4 |  | leucine | 
5 | B5 |  | arginine | 
